Measured values: patent US20190367592A1 (AC IMMUNE, published 2019)
Where a chain is given by its changes, count along the chain named.

Key:
[1] = target: T1, recombinant human Tau monomer, 2N4R isoform (amino acids 2-441) (human, UniProt P10636-8 2-441); experiment: SPR, captured IgG, Tau monomer analyte, 1:1 model; fit-quality column: Yes
T1 construct: range 2-441; N-terminal His-tag removed with TEV protease; also called monomeric Tau
Method: (§1) Briefly, IgGs in 1 mL culuture were captured using tip columns that were custom packed with 20 μL MabSelect SuRe resin (Glygen Corp & GE Healthcare). After washing with 1×PBS pH 7.4, IgGs were eluted into 160 μL of 50 mM phosphoric acid pH 3 and neutralized with 12 μL of 20×PBS pH 11. MabSelect SuRe tip columns were stripped in 0.1 M NaOH and regenerated with 1×PBS pH 7.4 for consecutive use of up to 15 times. Purified antibodies in 96-well format were normalized to 0.1 mg/ml using a Hamilton Star liquid handling robot. The “pre-stress” samples were kept at approximately 4° C. and the “post-stress” samples were incubated at 40° C. for two weeks in a PCR machine. Functional stability of the variants was compared by running surface plasmon resonance kinetics experiments with the “pre-stress” and “post-stress” antibody preps. The antibodies were assessed using a human antibody capture CM5 Series S chip generated using the GE Biacore human IgG capture kit and a Biacore T200 instrument. Antibodies diluted to 2 μg/ml were immobilized using a 15 second injection time and 10 μl/min flow rate. Binding to Tau monomer at 0 nM, 26.5 nM and 265 nM, at 25° C., using a flow rate of 40 μl/min, was monitored for a 180 second association phase followed by a 300 second dissociation phase. Samples were run in 10 mM HEPES pH7.4, 150 mM NaCl, 0.05% Tween 20 (HBSP) using a multi-cycle kinetics format. Data was analyzed using BIAevaluation software, fitting a 1:1 binding model. The resulting affinity (KD) values are shown in FIG. 8A-D. A Stability Index was also calculated, using the rationale that affinity-compromised antibodies (due for example to deamidation of key residues) are expected to contribute equally to the IgG capture level (“Ligand Level”) but to contribute less to the measured Tau binding, and that this would be reflected in the experimentally derived value for Rmax. To account for variations in the amount of each antibody captured, Rmax was normalized for the antibody capture level (as measured by “Ligand Level”, Response Units immobilized during antibody capture). Thus Normalized Rmax is calculated as the experimental Rmax (units=RU) divided by the “Ligand Level” (Evaluation output representing the RU captured during the hIgG capture step, units=RU), and Stability Index is calculated here as Normalized Rmax (post-stress) divided by Normalized Rmax (pre-stress).

[2] = target: T1, recombinant human Tau monomer, 2N4R …; experiment: SPR; Normalized Rmax post-stress (2 weeks 40 C) / pre-stress
Method: as §1

T1 sequence (P10636 other isoform, or with tags, fused parts or gaps limits assumed): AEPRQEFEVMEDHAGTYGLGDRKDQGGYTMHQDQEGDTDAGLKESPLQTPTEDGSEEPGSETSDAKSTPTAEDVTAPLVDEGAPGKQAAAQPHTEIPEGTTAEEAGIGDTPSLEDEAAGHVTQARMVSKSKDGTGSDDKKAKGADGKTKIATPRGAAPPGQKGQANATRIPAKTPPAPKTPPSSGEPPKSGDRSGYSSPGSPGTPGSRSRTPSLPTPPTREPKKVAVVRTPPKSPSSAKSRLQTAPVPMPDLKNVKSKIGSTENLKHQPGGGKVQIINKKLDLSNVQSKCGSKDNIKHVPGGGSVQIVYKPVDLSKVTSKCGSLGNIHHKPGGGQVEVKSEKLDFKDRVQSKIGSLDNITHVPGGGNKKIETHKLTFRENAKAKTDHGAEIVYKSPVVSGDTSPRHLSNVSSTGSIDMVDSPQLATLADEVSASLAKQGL

B1: hu37D3.v28 (antibody, V domains shown)
VH: EVQLVESGGGLVQPGGSLRLSCAASGLIFRSYGMSWVRQAPGKGLEWVATINSGGTYTYYPDSVKGRFTISRDNSKNTLYLQMNSLRAEDTAVYYCANSYSGAMDYWGQGTLVTVSS
VL: DDVLTQTPLSLPVTPGQPASISCRSSQSIVHSNGNTYFEWYLQKPGQSPQLLIYKVSNRFSGVPDRFSGSGSGTDFTLKISRVEAEDVGVYYCFQGSLVPWTFGQGTKVEIK
In the case of B1, the Kd [1] is reported as 0.9 nM and the “Stability Index” value [2] is reported as 78%.

B2: hu37D3-H9.v5.2 (antibody, V domains shown)
VH: B1 VH
VL: B1 VL with D1E, N33S
In the case of B2, the Kd [1] is reported as 10.9 nM and the “Stability Index” value [2] is reported as 97%.

B3: hu37D3-H9.v5.7 (antibody, V domains shown)
VH: B1 VH
VL: B1 VL with D1E, N35D
In the case of B3, the Kd [1] is reported as 13 nM and the “Stability Index” value [2] is reported as 67%.

B4: hu37D3-H9.v5.8 (antibody, V domains shown)
VH: B1 VH
VL: B1 VL with D1E, N35Q
B4 was tested, and the Kd [1] was 2.2 nM and the “Stability Index” value [2] was 90%.

B5: hu37D3-H9.v5.9 (antibody, V domains shown)
VH: B1 VH
VL: B1 VL with D1E, N35E
B5 was tested, and the Kd [1] was 5.3 nM and the “Stability Index” value [2] was 95%.

B6: hu37D3-H9.v5.10 (antibody, V domains shown)
VH: B1 VH
VL: B1 VL with D1E, N35A
B6 was tested, and the Kd [1] was 4.7 nM and the “Stability Index” value [2] was 78%.

B7: hu37D3-H9.v5.11 (antibody, V domains shown)
VH: B1 VH
VL: B1 VL with D1E, N35S
B7 was tested, and the Kd [1] was 97.7 nM and the “Stability Index” value [2] was 71%.

B8: hu37D3-H9.v30.1 (antibody, V domains shown)
VH: B1 VH
VL: B1 VL with N33G
For B8, the Kd [1] was 23.5 nM and the “Stability Index” value [2] was 87%.

B9: hu37D3-H9.v30.2 (antibody, V domains shown)
VH: B1 VH
VL: B1 VL with N33T
In the case of B9, the Kd [1] is reported as 4.2 nM and the “Stability Index” value [2] is reported as 96%.

B10: hu37D3-H9.v30.3 (antibody, V domains shown)
VH: B1 VH
VL: B1 VL with N33V
B10 was tested, and the Kd [1] was 38.1 nM and the “Stability Index” value [2] was 83%.

B11: hu37D3-H9.v30.4 (antibody, V domains shown)
VH: B1 VH
VL: B1 VL with N33L
In the case of B11, the Kd [1] is reported as 22 nM and the “Stability Index” value [2] is reported as 87%.

B12: hu37D3-H9.v31.2 (antibody, V domains shown)
VH: B1 VH
VL: B1 VL with G34A, N35V
With B12 the Kd [1] was 10.6 nM and the “Stability Index” value [2] was 90%.

B13: hu37D3-H9.v31.3 (antibody, V domains shown)
VH: B1 VH
VL: B1 VL with G34A, N35I
For B13, the Kd [1] was 9.8 nM and the “Stability Index” value [2] was 93%.

B14: hu37D3-H9.v31.5 (antibody, V domains shown)
VH: B1 VH
VL: B1 VL with G34A, N35F
B14 was tested, and the Kd [1] was 15.2 nM and the “Stability Index” value [2] was 85%.

B15: hu37D3-H9.v31.6 (antibody, V domains shown)
VH: B1 VH
VL: B1 VL with G34A, N35Y
In the case of B15, the Kd [1] is reported as 15.5 nM and the “Stability Index” value [2] is reported as 90%.

B16: hu37D3-H9.v31.7 (antibody, V domains shown)
VH: B1 VH
VL: B1 VL with G34A, N35R
With B16 the Kd [1] was 6.9 nM and the “Stability Index” value [2] was 83%.

B17: hu37D3-H9.v31.8 (antibody, V domains shown)
VH: B1 VH
VL: B1 VL with G34A, T36V
In the case of B17, the Kd [1] is reported as 10.9 nM and the “Stability Index” value [2] is reported as 78%.

B18: hu37D3-H9.v31.9 (antibody, V domains shown)
VH: B1 VH
VL: B1 VL with G34A, T36I
In the case of B18, the Kd [1] is reported as 7.5 nM and the “Stability Index” value [2] is reported as 81%.

B19: hu37D3.v28.52 (antibody, V domains shown)
VH: B1 VH
VL: B1 VL with D1E, N33K
B19 was tested, and the Kd [1] was 17.6 nM and the “Stability Index” value [2] was 80%.

B20: hu37D3.v28.53 (antibody, V domains shown)
VH: B1 VH
VL: B1 VL with D1E, N33R
In the case of B20, the Kd [1] is reported as 22.9 nM and the “Stability Index” value [2] is reported as 76%.

B21: hu37D3.v28.54 (antibody, V domains shown)
VH: B1 VH
VL: B1 VL with D1E, N33L
For B21, the Kd [1] was 24.8 nM and the “Stability Index” value [2] was 82%.

B22: hu37D3.v28.55 (antibody, V domains shown)
VH: B1 VH
VL: B1 VL with G34Q
For B22, the Kd [1] was 2.6 nM and the “Stability Index” value [2] was 82%.

B23: hu37D3.v28.56 (antibody, V domains shown)
VH: B1 VH
VL: B1 VL with G34Y
With B23 the Kd [1] was 5.4 nM and the “Stability Index” value [2] was 76%.

B24: hu37D3.v28.57 (antibody, V domains shown)
VH: B1 VH
VL: B1 VL with G34F
For B24, the Kd [1] was 4.4 nM and the “Stability Index” value [2] was 88%.

B25: hu37D3.v28.A2 (antibody, V domains shown)
VH: B1 VH
VL: B1 VL with L98H
In the case of B25, the Kd [1] is reported as 32.6 nM and the “Stability Index” value [2] is reported as 72%.

B26: hu37D3.v28.A4 (antibody, V domains shown)
VH: B1 VH
VL: B1 VL with F38L
notes: also called hu37D3-H9.v28.A4
With B26 the Kd [1] was 1.2 nM and the “Stability Index” value [2] was 96%.

B27: hu37D3.v28.A6 (antibody, V domains shown)
VH: B1 VH
VL: B1 VL with F38L, L98H
In the case of B27, the Kd [1] is reported as 38.3 nM and the “Stability Index” value [2] is reported as 82%.

B28: hu37D3.v28.B1 (antibody, V domains shown)
VH: B1 VH
VL: B1 VL with N33I, Y37F
With B28 the Kd [1] was 24.3 nM and the “Stability Index” value [2] was 101%.

B29: hu37D3.v28.B2 (antibody, V domains shown)
VH: B1 VH
VL: B1 VL with N33M, Y37F
With B29 the Kd [1] was 31.8 nM and the “Stability Index” value [2] was 83%.

B30: hu37D3.v28.B6 (antibody, V domains shown)
VH: B1 VH
VL: B1 VL with N33D, Y37R
B30 was tested, and the Kd [1] was 85.6 nM and the “Stability Index” value [2] was 46%.

B31: hu37D3.v28.C1 (antibody, V domains shown)
VH: B1 VH
VL: B1 VL with G34N
In the case of B31, the Kd [1] is reported as 1.4 nM and the “Stability Index” value [2] is reported as 77%.

B32: hu37D3.v28.C2 (antibody, V domains shown)
VH: B1 VH
VL: B1 VL with G34D
For B32, the Kd [1] was 9.6 nM and the “Stability Index” value [2] was 75%.

B33: hu37D3.v28.D1 (antibody, V domains shown)
VH: B1 VH
VL: B1 VL with S32A
With B33 the Kd [1] was 5.7 nM and the “Stability Index” value [2] was 73%.

B34: hu37D3.v28.E1 (antibody, V domains shown)
VH: B1 VH
VL: B1 VL with H31N
For B34, the Kd [1] was 20.1 nM and the “Stability Index” value [2] was 46%.

B35: hu37D3.v28.E2 (antibody, V domains shown)
VH: B1 VH
VL: B1 VL with H31Q
In the case of B35, the Kd [1] is reported as 22.5 nM and the “Stability Index” value [2] is reported as 28%.
